Experimental data: patent publication US20210292393A1 (published 2021)

B1: antibody 324 (antibody, V domains shown)
VH: QVQLQESGPGLVKPSGTLSLTCAVSGGSISSSNWWSWVRQPPGKGLEWIGEIYHSGSTNYNPSLKSRVTISVDNSKNQFSLKLSSVTAADTAVYYCARESVAAAGISYYYYGMDVWGQGTTVTVSS
VL: EIVLTQSPGTLSLSPGERATLSCRASQSVSGRYLAWYQQKPGQAPRLLIYGASSRATGIPDRFSGSGSGTDFTLTISRLEPEDFAVYYCQHYGSSPGTFGQGTRLEIK
B2: antibody 328 (antibody, V domains shown)
VH: QVQLQESGPGLVKPSGTLSLTCAVSGGSISSSNWWSWVRQPPGKGLEWIGEIYHSGSTNYNPSLKSRVTISVDNSKNQFSLKLSSVTAADTAVYYCARESVAAAGISYYYYGMDVWGQGTTVTVSS
VL: DIQMTQSPSSLSASVGDRVTITCRASQGIRNDLGWYQQKPGKAPKRLIYAASSLQSGVPSRFSGSGSGTEFTLTVSGLQPEDFATYYCLQYNSSPLTFGGGTKVEIK
B3: antibody 323 (antibody, V domains shown)
VH: QVQLVQSGAEVKKPGASVKVSCKVSGYTLTELSMHWVRQAPGKGLEWMGGFDPEDGETIYAQKFQGRVTMTEDTSTDTAYMELSSLRSEDTAVYYCATSTIFAPGGWFDPWGQGTLVTVSS
VL: QSALTQPASVSGSPGQSITISCTGTSSDVGSYNLVSWYQQHPGKAPKLMIYEVSKRPSGVSNRFSGSKSGNTASLTISGLQAEDEADYYCCSYAGSTHYVFGTGTKVTVL
B4: antibody 329 (antibody, V domains shown)
VH: EVQLVESGGGLVQPGGSLRLSCAASGFTFSSYWMHWVRQAPGKGLVWVSRINSDGSSTSYADSVKGRFTISRDNAKNTLYLQMNSLRAEDTAVYYCAREGIVATITLDYWGQGTLVTVSS
VL: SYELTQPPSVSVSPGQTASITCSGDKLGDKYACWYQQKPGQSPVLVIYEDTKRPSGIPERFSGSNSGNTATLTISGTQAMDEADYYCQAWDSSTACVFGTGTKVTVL
B5: antibody 320 (antibody, V domains shown)
VH: QVQLVQSGAEVKKPGASVKVSCKASGYTFTSYGISWVRQAPGQGLEWMGWISAYNGNTNYAQKLQGRVTMTTDTSTRTAYMELRSLRSDDTAVYYCARVGCYYDSSGYSCAENFQHWGQGTLVTVSS
VL: QSVLTQPPSVSGAPGQRVTISCTGSSSNIGAGYDVHWYQQLPGTAPKLLIYGNSNRPSGVPDRFSGSKSGTSASLAITGLQAEDEADYYCQSYDSSLSALFGGGTKLTVL
B6: antibody 585 (antibody, V domains shown)
VH: QVQLVESGGGVVQPGRSLRLSCAASGFTFATYAMHWVRQAPGKGLEWVALISHDGSNKHYADSVKGRFTISRDNSKKTLYLQMNSLRAEGTAIYYCARESLEAAAPPFDYWGQGTLVTVSS
VL: SYELTQPPSVSVSPGQTATIICSGDKLGEKYASWYQQKPGQSPALVIYQDRKRPSGIPERFSGSNSGNTATLTISGTQAMDEADYYCQAWDSSNSVVFGGGTKLTVP
B7: antibody 530 (antibody, V domains shown)
VH: EVQLVESGGGLVQPGGSLRLSCAASGFTFSSYWMSWVRQAPGKGLEWVANIKQDGSEKYYVDSVKGRFTISRDNAKNSLYLQMNSLRAEDTAVYYCAREPQLWSEYYFDYWGQGTLVTVSS
VL: DIQMTQSPSSLSASVGDRVTITCRASQGISSWLAWYQQKPEKAPKSLIYAASSLQSGVPSRFSGSGSGTDFTLTISSLQPEDFATYYCQQYNSYPPTFGQGTRLEIK
notes: also called mAb 530
B8: antibody 554 (antibody, V domains shown)
VH: QVQLVESGGGVVQPGRSLRLSCAASGFTFSSYAMHWVRQAPGKGLEWVAVISYDGSNKYYADSVKGRFTISRDNSKNTLYLQMNSLRAEDTAVYYCARPQGGNYYYYGMDVWGQGTTVTVSS
VL: DIQMTQSPSSVSASVGDRVTITCRASQGISSWLAWYQQKPGKAPKLLIYAASSLQSGVPSRFSGSGSGTDFTLTISSLQPEDFATYYCQQANSFPLTFGGGTKVEIK
B9: antibody 557 (antibody, V domains shown)
VH: QVQLVESGGGVVQPGRSLRLSCAASGFTFSSYAMHWVRQAPGKGLEWVAVISYDGSNKYYADSVKGRFTISRDNSKNTLYLQMNSLRAEDTAVYYCARMYSGSYRGGFDYWGQGTLVTVSS
VL: not shown
B10: antibody 558 (antibody, V domains shown)
VH: QVQLVESGGGVVQPGRSLRLSCAASGFTFSSYAMHWVRQAPGKGLEWVAVISYDGSNKYYADSVKGRFTISRDNSKNTLYLQMNSLRAEDTAVYYCARGQGGGYYYGMDVWGQGTTVTVSS
VL: QSALTQPASVSGSPGQSITISCTGTSSDVGGYNYVSWYQQHPGKAPKLMIYDVSNRPSGVSNRFSGSKSGNTASLTISGLQAEDEADYYCSSYTSSSTLYVFGTGTKVTVL
B11: antibody 562 (antibody, V domains shown)
VH: QVQLVESGGGVVQPGRSLRLSCAASGFTFSSYAMHWVRQAPGKGLEWVAVISYDGSNKYYADSVKGRFTISRDNSKNTLYLQMNSLRAEDTAVYYCARASSGGYQGPFDPWGQGTLVTVSS
VL: QSALTQPASVSGSPGQSITISCTGTSSDVGGYNYVSWYQQHPGKAPKLMIYDVSNRPSGVSNRFSGSKSGNTASLTISGLQAEDEADYYCSSYTSSSTLLYVFGTGTKVTVLG
B12: antibody 525 (antibody, V domains shown)
VH: QVQLVESGGGVVQPGRSLRLSCAASGFTFSSYAMHWVRQAPGKGLEWVTVISYNGRNKYYADSVKGRFTISRDNSKNTLYLQMNSLRAEDTAVYWCAREGLGAIVVGLDYWGQGTLVIVSS
VL: not shown
B13: antibody 559 (antibody, V domains shown)
VH: QVQLQESGPGLVKLSETLSLTCTVSGYSISSGYYWGWIRQPPGKGLEWIGSIYHSGSTYYNPSLKSRVTISVDTSKNQFSLKLSSVTAADTAVYYCAREETLGSSWYESYIDYWGQGTLVTVSS
VL: SYVLTQPPSVSVAPGKTARITCGGNNIGSKSVHWYQQKPGQAPVLVIYYDSDRPSGIPERFSGSNSGNTATLTISRVEAGDEADYYCQVWDSSSDHPRVFGGGTKLTVL
B14: antibody 528 (antibody, V domains shown)
VH: QVQLVQSGAEVKKPGSSVKVSCKASGGTFNSNSISWVRQAPGQGLEWMGRIIPILDITMYARKFQGRVTISADKSTGTAYMDLSSLRSEDTAVYYCATDRDDSSGDYYYGMDVWGQGTTVTVSS
VL: DIQMTQSPSSLSASVGDRVTITCRASLSISNYLNWYQQKPGKAPNLLIYAASTLQSGVPSRFSGSGSGTDFTLTISSLQPEDFATYYCQQTYITRWTFGQGTKVEIK
notes: also called mAb 528
B15: antibody 535 (antibody, V domains shown)
VH: EVQLVESGGGLIQPGGSLRLSCAASGFTVSSNYMSWVRQAPGKGLEWVSVIYSGGSTYYADSVKGRFTISRDNSKNTLYLQMNSLRAEDTAVYYCARDLTEEGDFWSASSYRRYYYYGMDVWGQGTTVTVSS
VL: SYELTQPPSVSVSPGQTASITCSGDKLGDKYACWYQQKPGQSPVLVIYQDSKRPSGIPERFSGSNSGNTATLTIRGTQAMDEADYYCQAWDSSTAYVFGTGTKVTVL
B16: antibody 552 (antibody, V domains shown)
VH: QVQLVQSGAEVKKPGSSVKVSCKASGGTFSSYGISWVRQAPGQGLEWMGRIIPILGIANYAQKFQGRVTITADKSTSTAYMELSSLRSEDTAVYYCARAVYAAGDDDYYYYYGMDVWGQGTTVTVSS
VL: SYELTQPPSVSVSPGQTARITCSGDALPKQYAYWYQQKPGQAPVVVIYKDSDRPSGIPERFSGSSSGTTVTLTISGVQAEDEADYYCQSADSSGTYQVFGTGTKVSVL

target: SARS-CoV spike protein (SARS-CoV, UniProt P59594 14-1190); assay: not given

Binder | median fluorescence intensity, fold over isotype control
B1 | 1.14 fold over isotype
B2 | 1.22 fold over isotype
B3 | 1.29 fold over isotype
B4 | 2.46 fold over isotype
B5 | 989 fold over isotype

target: T1, SARS-CoV-2 spike protein (SARS-CoV-2, UniProt P0DTC2 14-1208); assay: HT-SPR, Carterra LSA; mAb coupled to chip, antigen injected; 1:1 fit
T1 construct: also called SARS-CoV-2 S protein; antigen of interest

Binder | Kd | koff | kon
B6 | 0.248 nM | 4.59e-05 s⁻¹ | 185000 M⁻¹ s⁻¹
B7 | 2.19 nM | 0.000209 s⁻¹ | 95400 M⁻¹ s⁻¹
B8 | 0.129 nM | 3.5e-05 s⁻¹ | 271000 M⁻¹ s⁻¹
B9 | 0.144 nM | 3.35e-05 s⁻¹ | 233000 M⁻¹ s⁻¹
B10 | 0.237 nM | 8.94e-05 s⁻¹ | 378000 M⁻¹ s⁻¹
B11 | 0.0211 nM | 1.16e-05 s⁻¹ | 548000 M⁻¹ s⁻¹
B12 | 0.107 nM | 3.94e-05 s⁻¹ | 367000 M⁻¹ s⁻¹
B13 | 32.2 nM | 0.000631 s⁻¹ | 19600 M⁻¹ s⁻¹
B14 | 0.509 nM | 0.000285 s⁻¹ | 560000 M⁻¹ s⁻¹
B15 | 0.395 nM | 4.15e-05 s⁻¹ | 105000 M⁻¹ s⁻¹
B16 | 0.0393 nM | 1.01e-05 s⁻¹ | 258000 M⁻¹ s⁻¹
